Measurements from doi:10.1101/2022.06.06.494913 (bioRxiv, 2022).

Target: EIIA^Glc (UniProt P69783 2-169)
Experiment: SPR + ELISA

EIIA^Glc, sequence (P69783 2-169): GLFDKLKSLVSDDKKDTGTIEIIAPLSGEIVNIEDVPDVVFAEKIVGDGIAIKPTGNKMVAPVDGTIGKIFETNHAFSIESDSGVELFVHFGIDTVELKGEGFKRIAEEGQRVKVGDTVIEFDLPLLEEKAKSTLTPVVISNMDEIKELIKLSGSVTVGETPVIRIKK

B1: EIIB^Glc (domain or fragment)
chain: EDATEDAKATGTSEMAPALVAAFGGKENITNLDACITRLRVSVADVSKVDQAGLKKLGAAGVVVAGSGVQAIFGTKSDNLKTEMDEYIRN
For B1, the Kd was > 10 µM.
